Test results published in US20210361653.

Target: His-BRD4-N (amino acids 1-500), O60885

B1: GST-SPOP (protein)
chain: MSRVPSPPPPAEMSSGPVAESWCYTQIKVVKFSYMWTINNFSFCREEMGEVIKSSTFSSGANDKLKWCLRVNPKGLDEESKDYLSLYLLLVSCPKSEVRAKFKFSILNAKGEETKAMESQRAYRFVQGKDWGFKKFIRRDFLLDEANGLLPDDKLTLFCEVSVVQDSVNISGQNTMNMVKVPECRLADELGGLWENSRFTDCCLCVAGQEFQAHKAILAARSPVFSAMFEHEMEESKKNRVEINDVEPEVFKEMMCFIYTGKAPNLDKMADDLLAAADKYALERLKVMCEDALCSNLSVENAAEILILADLHSADQLKTQAVDFINYHASDVLETSGWKSMVVSHPHLVAEAYRSLASAQCPFLGPPRKRLKQS
in vitro ubiquitination assay: The SPOP-CULLIN3-RBX1 complex was shown to catalyzed BRD4 ubiquitination in vitro
